How the values were obtained:
[1] = tested on: early mesoderm progenitors; test: Factor criticality / dynamic profile analysis of gene expression on removal of a finalized effector; format: cell-based, human; design: expression level of GATA2 / expression level of TAL1 / expression level of CD44 / expression level of KDR / expression level of CD34 / expression level of CD31: unit not given here
[2] = tested on: early mesoderm progenitors; test: 8-factor HD-DoE experiments optimized for maximum GATA2 expression (qPCR, partial least squares models); format: cell-based, human; conditions: fifth model, FIG. 6; factors VPA, SCF, BMP4, EFG, FLT3L, Arginine, Retinoic Acid, VEGF
[3] = model FIG. 11, named factor removed

B1: BMP4: BMP pathway agonist (protein, UniProt P12644 293-408, looked up)
Bone morphogenetic protein 4: SPKHHSQRARKKNKNCRRHSLYVDFSDVGWNDWIVAPPGYQAFYCHGDCPFPLADHLNSTNHAIVQTLVNSVNSSIPKACCVPTELSAISMLYLDEYDKVVLKNYQEMVVEGCGCR
- expression level of GATA2 ([1]; model FIG. 11 (Retinoic Acid, BMP4, VEGF), factor present): 519
- expression level of CD31 ([1]; model FIG. 11, factor present): 768
- expression level of CD34 ([1]; model FIG. 11, factor present): 3971
- expression level of FLI1 (Fill [sic]) ([1]; model FIG. 11, factor present): 3250
- expression level of KDR ([1]; model FIG. 11, factor present): 17667
- expression level of TAL1 ([1]; model FIG. 11, factor present): 490
- expression level of CD31 [1, 3]: 682
- expression level of CD34 [1, 3]: 3455
- expression level of FLI1 (Fill [sic]) [1, 3]: 2213
- expression level of GATA2 [1, 3]: 338
- expression level of KDR [1, 3]: 10025
- expression level of TAL1 [1, 3]: 422
- factor contribution (maximum expression of GATA2) [2]: 31

Source: US20240067932A1, “METHODS AND COMPOSITIONS FOR GENERATING HEMOGENIC ENDOTHELIAL CELLS FROM PLURIPOTENT STEM CELLS” (Trailhead Biosystems Inc., priority 2022, published 2024)
